This is an account of results in patent US20220144930A1.

The target in experiment [1] is recombinant human VEGF165 protein (human) (UniProt P15692). Briefly: cell-based or functional assay.
Experiment [2] has the same target. Briefly: ELISA; coated VEGF165 titrated 0.15-3000 ng/mL, antibody fixed at 1 µg/mL (EC50 is of the coating concentration).
Experiment [3] has the same target. Briefly: streptavidin-coated sensor with immobilized biotin-labeled VEGF165; reference Avastin.
Experiment [4] shares this target. Briefly: streptavidin-coated sensor with immobilized biotin-labeled VEGF165, antibody at several concentrations.

B1: humanized antibody VEGF-H988 (antibody, human IgG1, kappa, V domains shown)
VH: QSVQESGPGLVKPSETLSLTCTVSGIDLSSYAISWVRQPPGKGLEYIGYIWNDLFTYYASWAKGRVTISVDTSKNQVDLKLSSVTAADTAVYFCARGTLGDYGGMDPWGQGTLVTVSS
VL: ELQLTQSPSSLSASVGDRVTITCQSSKFLWQGRRLAWYQQKPGKVPKLLIYGASTLASGVPSRFKGSGSGTDFTLTISSLQPEDVATYYCAGYKSYDGDVVGFGGGTKVEIKR
With B1, in experiment [1], the EC50(nM), neutralizing VEGF165 at 10 ng/mL, HUVEC proliferation stood at 0.14 nM; the EC50(nM), neutralizing VEGF165 at 10 ng/mL, HUVEC proliferation (run against Avastin) was 0.13 nM; the EC50(nM), neutralizing VEGF165 at 100 ng/mL, HUVEC proliferation is 1.34 nM; the EC50(nM), neutralizing VEGF165 at 100 ng/mL, HUVEC proliferation (run against Avastin) is 1.36 nM. In experiment [1], the EC50(nM), neutralizing VEGF165 at 1000 ng/mL, HUVEC proliferation was 9.67 nM; the EC50(nM), neutralizing VEGF165 at 1000 ng/mL, HUVEC proliferation (run against Avastin) amounted to 9.33 nM; the maximum neutralization rate (%), VEGF165 at 10 ng/mL, HUVEC proliferation is 100%; the maximum neutralization rate (%), VEGF165 at 10 ng/mL, HUVEC proliferation (run against Avastin) turned out to be 100%. Besides, in experiment [1], the maximum neutralization rate (%), VEGF165 at 100 ng/mL, HUVEC proliferation came out at 102%; the maximum neutralization rate (%), VEGF165 at 100 ng/mL, HUVEC proliferation (run against Avastin) worked out at 102%; the maximum neutralization rate (%), VEGF165 at 1000 ng/mL, HUVEC proliferation was 104%; the maximum neutralization rate (%), VEGF165 at 1000 ng/mL, HUVEC proliferation (run against Avastin) was determined as 104%. Also, the EC50 – broadly, the midpoint of the concentration-response curve – in experiment [2] is 2.42 ng/mL. The fold affinity against Avastin in experiment [3] was 1.5 fold. In experiment [4], the Kd (as a rule, the concentration at which binding is half-saturated) is 0.0195 nM; the koff (as a rule, the rate constant with which the complex falls apart) turned out to be 6.7e-06 s⁻¹; the on-rate constant (kon) – broadly, a measure of how fast the partners come together – was 344000 M⁻¹ s⁻¹.
